Experimental data published in publication PMC11327461, “Exogenous serpin B1 restricts immune complex-mediated NET formation via inhibition of a chymotrypsin-like protease and enhances microbial phagocytosis” (The Journal of Biological Chemistry, 2024).

T1: recombinant human serpin B1, wild type (C344) (human, UniProt P30740 1-379)
T1 construct: serpin B1, human, recombinant, wild type (C344); non-glycosylated, 42 kDa by the discussion; also called rhsB1; sB1; source: yeast S. cerevisiae, purified
T1 sequence (looked up): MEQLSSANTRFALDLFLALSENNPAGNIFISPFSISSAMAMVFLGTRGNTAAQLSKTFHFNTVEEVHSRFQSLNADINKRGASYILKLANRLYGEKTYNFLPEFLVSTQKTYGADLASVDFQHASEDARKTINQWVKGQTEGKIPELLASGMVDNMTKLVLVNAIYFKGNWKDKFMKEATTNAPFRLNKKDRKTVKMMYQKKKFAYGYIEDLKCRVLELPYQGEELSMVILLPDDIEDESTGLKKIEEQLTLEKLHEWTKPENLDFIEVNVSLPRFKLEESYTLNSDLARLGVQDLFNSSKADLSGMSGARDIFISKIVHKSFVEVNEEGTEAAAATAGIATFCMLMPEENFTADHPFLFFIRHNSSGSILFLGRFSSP

B1: cathepsin G (enzyme, human, UniProt P08311 21-244, looked up)
chain: IIGGRESRPHSRPYMAYLQIQSPAGQSRCGGFLVREDFVLTAAHCWGSNINVTLGAHNIQRRENTQQHITARRAIRHPQYNQRTIQNDIMLLQLSRRVRRNRNVNPVALPRAQEGLRPGTLCTVAGWGRVSMRRGTDTLREVQLRVQRDRQCLRIFGSYDPRRQICVGDRRERKAAFKGDSGGPLLCNNVAHGIVSYGKSSGVPPEVFTRVSSFLPWIRTTMRS
notes: cathepsin G (hCG), neutrophil serine protease; also called hCG; Cat G; source: bought: Athens Research and Technology
B2: proteinase 3 (enzyme, human, UniProt P24158 28-248, looked up)
chain: IVGGHEAQPHSRPYMASLQMRGNPGSHFCGGTLIHPSFVLTAAHCLRDIPQRLVNVVLGAHNVRTQEPTQQHFSVAQVFLNNYDAENKLNDVLLIQLSSPANLSASVATVQLPQQDQPVPHGTQCLAMGWGRVGAHDPPAQVLQELNVTVVTFFCRPHNICTFVPRRKAGICFGDSGGPLICDGIIQGIDSFVIWGCATRLFPDFFTRVALYVDWIRSTLR
notes: hPR3, neutrophil serine protease; also called hPR3; PR3; source: bought: Athens Research and Technology

Biological target: T1, recombinant human serpin B1, wild type …
Experiment: formation of SDS- and heat-stable serpin-protease complexes, SDS-PAGE; 2 uL of hNE, hPR3 or hCG (23.4 uM each) mixed with each sB1 protein at 1:1 molar ratio in 20 uL PBS, pH 7.4, 15 min; stopped with protease inhibitor mix; reducing sample buffer, heated, SDS-PAGE
Conditions: both partners purified

| Binder | binding result |
| --- | --- |
| B1 | binds |
| B2 | binds |
